Target: T1, SigE^17–133 (B. subtilis SigE residues 17–133) (B. subtilis, 15N-labelled)
T1 construct: Cloned BamHI/XhoI into pET28-TxrA (His tag, thioredoxin, TEV site)
T1 chain: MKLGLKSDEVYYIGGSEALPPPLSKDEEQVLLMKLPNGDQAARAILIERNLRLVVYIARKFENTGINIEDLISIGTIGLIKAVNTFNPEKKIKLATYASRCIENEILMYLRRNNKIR
Assay: NMR titration; 1H-15N HSQC chemical shift perturbation; 100 uM 15N-labelled SigE 17-133 alone and with a 2-fold excess of unlabelled CsfB A48E; 298 K, 700 MHz; 50 mM HEPES pH 7.5, 150 mM KCl, 0.5 mM TCEP
Details: both partners purified

- binding result: binds
B1: CsfB^A48E (natural protein, B. subtilis)
chain: MDETVKLNHTCVICDQEKNRGIHLYTKFICLDCERKVISTSTSDPDYEFYVKKLKSIHTPPLYS
notes: Anti-sigma factor CsfB (Gin), B. subtilis, with the stabilising mutation A48E; In pNIC28 (TEV-cleavable N-terminal His tag); also called CsfB/Gin; Gin; source: E. coli BL21(DE3)pLysS, purified (IMAC, SEC)
